Test results: patent US20120328625A1 (AstraZeneca / MedImmune, published 2012)

Columns and labels:
[1] = target: T1, full length human Shh expressed on the cell surface (human, UniProt Q15465 24-462); assay: cell-based or functional assay
[2] = target: T2, Shh-N in conditioned medium (human, UniProt Q15465 24-197, N-terminal palmitoyl modification; lacks the C-terminal cholesterol moiety); assay: cell-based or functional assay
[3] = target: T3, Recombinant Human Desert Hedgehog C23II, amino terminal peptide (R&D Systems cat#4777-HH) (human, UniProt O43323 23-198); assay: ELISA, immobilized human Dhh, antibody 30 µg/ml to 1 pg/ml
T3 construct: domain: amino terminal peptide; bought; also called Human Dhh
Procedure: The plates were washed four times with PBS-T. Titrations of purified antibody (half log serial dilutions over at least six logs with a starting concentration of 30 μg/mL) were made in 100 μl PBS-T and added into wells and incubated with shaking overnight at 4° C. Antibody controls included human IgG2 and IgG4 (Sigma-Aldrich, Cat, #I5404 and #I4639, respectively). […] Following washing with PBS-T, the chemiluminescent Peroxidase substrate (Sigma cat# CPS-2-60) was added at room temperature and incubated for ten minutes with the plate covered by foil. Each well was read for 100 msec in the Spectromax 5e to determine RLU.
After washing with PBS-T and blocking with 1% BSA, antibody titrations spanning concentrations of 30 μg/ml to 1 pg/ml prepared by half log serial dilution in PBS-T were added to wells and incubated with shaking overnight at 4° C.

[4] = target: T1, full length human Shh expressed on the …; assay: flow cytometry, exhaust hybridoma supernatant 1:10, 293T cells transiently expressing human Shh
Procedure: Finally, binding of antibody in exhaust hybridoma supernatants to native Shh was assessed using flow cytometry. […] Transfected or parental cells were seeded into the plates with V-bottom wells (50,000 cells/well). Exhaust supernatants (50 μl of a 1:10 dilution) were added to each well and incubated at 4° C. for 1 hr. […] It was added to a concentration of 2 μg/ml in a volume of 50 μl. Cells were washed and 50 μl of a 2 μg/ml solution of secondary antibody (Cy5-labeled goat-anti-human IgG or Cy5-labeled goat-anti-rabbit IgG) were added to each well. 7AAD was added to a concentration of 5 μg/ml and the mixture was incubated for 30 min at RT. The mean fluorescence for each sample was then determined using flow cytometry.

[5] = target: T2, Shh-N in conditioned medium; assay: cell-based or functional assay; remark: listed apart in the source
[6] = target: T1, full length human Shh expressed on the …; assay: flow cytometry, hybridoma-derived hIgG4 on HEK 293 cells stably expressing full length Shh; 95% CI ±40 pM
Procedure: The binding affinity of the purified antibodies for full length Shh ectopically expressed on the surface of a pool of stable HEK 293 cells was determined using flow cytometry. […] Antibody was mixed with cells at approximately 74,000 cells/well in a final volume of 300 μl in a polypropylene microtiter plate. The plate was incubated with shaking for 5 hours at 4° C. […] The plates were shaken for 20 minutes at 4° C. The mean fluorescence of 10,000 events was recorded for each sample using FACS Canto II HTS flow cytometry instrumentation. A plot of the mean fluorescence as a function of antibody concentration was fit nonlinearly with Scientist 3.0 software to estimate KD.

[7] = target: T4, Recombinant Human Sonic Hedgehog C24II amino terminal peptide (R&D Systems cat#1845-SH) (human, UniProt Q15465 24-197); assay: ELISA, apparent KD, purified antibody on immobilized Shh C24II
T4 construct: domain: amino terminal peptide; bought; also called Shh-C24II; C24II peptide
Procedure: (§1) The binding of purified antibodies to recombinant human Shh was determined using an ELISA-based method. The N-terminal signaling domain of Shh, Shh-N, was presented in two forms: as a purified protein isolated from bacteria lacking lipid modifications and as a constituent of conditioned medium in a form that contains the N-terminal palmitoyl modification but lacks the C-terminal cholesterol moiety.
(§2) The plates were sealed and placed on a shaker overnight at 5° C. The next day, the plates were washed 4 times with PBS with 0.05% Tween 20 (PBS-T). […] The plates were washed four times with PBS-T. Titrations of purified antibody (half log serial dilutions over at least six logs with a starting concentration of 30 μg/mL) were made in 100 μl PBS-T and added into wells and incubated with shaking overnight at 4° C. Antibody controls included human IgG2 and IgG4 (Sigma-Aldrich, Cat, #I5404 and #I4639, respectively). […] Following washing with PBS-T, the chemiluminescent Peroxidase substrate (Sigma cat# CPS-2-60) was added at room temperature and incubated for ten minutes with the plate covered by foil. Each well was read for 100 msec in the Spectromax 5e to determine RLU.

[8] = target: T5, Recombinant Human/Mouse Indian Hedgehog C28II, amino terminal peptide (R&D Systems cat#1705-HH/CF) (human/mouse (100% sequence identity in …, UniProt Q14623 28-202)); assay: ELISA, apparent KD, purified antibody on immobilized human/mouse Ihh
T5 construct: domain: amino terminal peptide; bought; also called Human/mouse Ihh; Ihh-N C28II
Procedure: as §2

[9] = target: T1, full length human Shh expressed on the …; assay: FMAT, hybridoma supernatant on 293T cells transiently expressing human Shh
Procedure: Cells were maintained at 1×10⁶ cells/ml overnight at 37° C., 5% CO₂. […] Supernatants were added to each well (10 μl/well) and incubated 1.5 hrs at RT. […] Plates were read on the FMAT 8100 HTS system from Applied Biosystems. Total signal (FL1×count) is defined as the number of positive cells in a well (count) multiplied by the average fluorescence intensity of the positive cells (FL1).

[10] = target: T2, Shh-N in conditioned medium; assay: ELISA, apparent KD, purified antibody on immobilized Shh-CM
Procedure: as §1, §2

[11] = target: T2, Shh-N in conditioned medium; assay: cell-based or functional assay; remark: listed apart in the source
[12] = target: T1, full length human Shh expressed on the …; assay: cell-based or functional assay; remark: listed apart in the source
[13] = target: T2, Shh-N in conditioned medium; assay: cell-based or functional assay; remark: listed apart in the source
[14] = target: T5, Recombinant Human/Mouse Indian Hedgehog …; assay: SPR (Biacore), IgG1 captured on protein G', human/mouse Ihh as analyte, 1:1 Langmuir
Source text: (§3) Protein G was coupled to the CM5 chip surface using standard amine linkage chemistry. Protein G′ was cleared of Tris using a Dulbecco's PBS equilibrated PD-10 column. […] Approximately 500 RUs of protein G were covalently bound to the surface of flow chamber 2 (Fc2). […] Immobilization levels were reproducible between cycles.

[15] = target: T4, Recombinant Human Sonic Hedgehog C24II …; assay: SPR (Biacore), IgG1 captured on protein G', human Shh as analyte, 1:1 Langmuir
Source text: as §3

[16] = target: T5, Recombinant Human/Mouse Indian Hedgehog …; assay: cell-based or functional assay
[17] = target: T5, Recombinant Human/Mouse Indian Hedgehog …; assay: SPR (Biacore), IgG1 captured on protein G', Ihh as analyte
Source text: as §3

B1: 6D7 (antibody, V domains shown)
VH: QVQLQESGPGLVKPSQTLSLTCTVSGGSINSGGFYWSWIRQHPGKNLEWIGSIYYSGNTYYNPSLKSRVTISVDTSKNQFSLKLTSVTAADTAVYYCARGNDSGDYDWYFDLWGRGTLVTVSS
VL: SYELTQPPSVSVSPGQTASITCSGEKLGYKYVCWYQQKPGQSPVLVIFHDNKRPSGIPERFSGSNSGNTATLTISGAQAMDEADYYCQAGDSSAVFGGGTKLTVL
notes: fully human XenoMouse hybridoma antibody; also called MAb 6D7
In the case of B1, the “% Inh of Gli1 reporter, Co-Culture N = 1” value [1] is reported as 46%, the “% Inh of Gli1 reporter, Co-Culture N = 2” value [1] is reported as 22% and the “% Inh of Gli1 reporter, CM N = 1” value [2] is reported as -8%. For the same binder, the “% Inh of Gli1 reporter, CM N = 3” value [2] was -1%, the binding result [3] was “no binding” and the “X Geo Mean (Transients)” value [4] was 313. The “IC50, inhibition of osteoblast differentiation (alkaline phosphatase) of C3H10T1/2 cells” value [5] was 5300 pM, the Kd [6] was 107 pM and the Kd [7] was 47 pM. The Kd [8] was 52 pM, the “FL1 X COUNT” value [9] was 661000 and the Kd [10] was 60 pM. For the same binder, the “IC50, inhibition of endogenous mouse Gli1 mRNA (qRT-PCR) in C3H10T1/2 cells” value [11] was 11700 pM, the “IC50, inhibition of endogenous mouse Ptc1 mRNA (qRT-PCR) in C3H10T1/2 cells” value [11] was 8200 pM and the “% Inhibition of Gli1 reporter, Co-Culture N = 1, 20 µg/ml” value [12] was 80%. For the same binder, the “% Inhibition of Gli1 reporter, Co-Culture N = 2, 20 µg/ml” value [12] was 68%, the “% Inhibition of Gli1 reporter, Conditioned Media N = 1, 20 µg/ml” value [13] was 89% and the “% Inhibition of Gli1 reporter, Conditioned Media N = 2, 20 µg/ml” value [13] was 111%.

B2: 6D7OP (antibody, IgG1, V domains shown)
VH: QVQLQESGPGLVKPSQTLSLTCTVSGGSINSGGFYWSWIRQHPGKGLEWIGSIYYSGNTYYNPSLKSRVTISVDTSKNQFSLKLSSVTAADTAVYYCARGQDSGDYDWYFDLWGRGTLVTVSS
VL: SYELTQPPSVSVSPGQTASITCSGEKLGYKYVSWYQQKPGQSPVLVIYHDNKRPSGIPERFSGSNSGNTATLTISGTQAMDEADYYCQAGDSSAVFGGGTKLTVL
With B2 the Kd [14] was 34.2 pM, the Kd [15] was 3 pM and the “IC50, inhibition of osteoblast differentiation of C3H10T1/2 cells induced by Ihh-N C28II (2 µg/ml)” value [16] was 16300 pM.

B3: 3H8OP (antibody, V domains shown)
VH: QVQLVESGGGVVQPGRSLRLSCAASGFTFSTYGMHWVRQAPGKGLEWVAVIWYDGSNKYYADSVKGRFTISRDNSKNTLYLQMNSLRAEDTAVYYCARDLYYYGSGSPFDYWGQGTLVTVSS
VL: EIVMTQSPATLSVSPGERATLSCRASQSVSSNLAWYQQKPGQAPRLLIYGVSIRATGIPARFSGSGSGTEFTLTISSLQSEDFAVYYCQQYNNWPRPGFGGGTKVEIK
For B3, the “IC50, inhibition of osteoblast differentiation (alkaline phosphatase) of C3H10T1/2 cells” value [5] was 5600 pM, the Kd [7] was 82 pM and the binding result [17] was “no binding”. It also gave a Kd [15] of 26.1 pM and a Kd [10] of 685 pM.
